What was measured:
[1] = target: T1, 重组人CSF-1R-his蛋白 (Acro biosystems, Cat#CSR-H5228) (human, UniProt P07333 20-512); test: BLI (Octet), antibody on AHC sensor, CSF-1R-his in solution
T1 construct: Bought protein; also called human CSF-1R-his; not shown: His tag

[2] = target: T2, 猴CSF-1R-his蛋白 (内部制备, SEQ ID NO: 62) (monkey (cynomolgus), UniProt P07333 20-517 (human entry), limits assumed); test: indirect ELISA on coated monkey CSF-1R-his
T2 construct: Made in-house, coated in the indirect ELISA; also called monkey CSF-1R-his (in-house)
T2 chain: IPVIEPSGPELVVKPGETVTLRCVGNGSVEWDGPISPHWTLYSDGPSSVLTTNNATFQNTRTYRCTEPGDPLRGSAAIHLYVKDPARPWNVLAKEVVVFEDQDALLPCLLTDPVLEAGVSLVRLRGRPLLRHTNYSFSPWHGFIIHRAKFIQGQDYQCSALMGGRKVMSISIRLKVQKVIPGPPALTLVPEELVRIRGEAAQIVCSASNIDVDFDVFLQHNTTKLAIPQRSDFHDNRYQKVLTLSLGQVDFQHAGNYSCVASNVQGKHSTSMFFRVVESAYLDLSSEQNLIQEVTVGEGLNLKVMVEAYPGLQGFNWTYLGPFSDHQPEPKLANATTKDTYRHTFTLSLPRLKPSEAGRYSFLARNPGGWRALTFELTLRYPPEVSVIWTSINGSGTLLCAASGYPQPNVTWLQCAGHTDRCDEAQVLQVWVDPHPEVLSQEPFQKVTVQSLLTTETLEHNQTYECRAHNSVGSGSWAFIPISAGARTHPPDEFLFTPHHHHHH

生物素标记的人CSF-1R-Fc蛋白 = target: T3, 生物素标记的人CSF-1R-Fc蛋白 (human, biotin-labelled (sites not given)); test: capture ELISA: antibody captured by anti-human IgG, biotin-CSF-1R-Fc in solution
T3 construct: Made in-house; also called human CSF-1R-Fc
T3 sequence (chain, as listed by the source limits assumed): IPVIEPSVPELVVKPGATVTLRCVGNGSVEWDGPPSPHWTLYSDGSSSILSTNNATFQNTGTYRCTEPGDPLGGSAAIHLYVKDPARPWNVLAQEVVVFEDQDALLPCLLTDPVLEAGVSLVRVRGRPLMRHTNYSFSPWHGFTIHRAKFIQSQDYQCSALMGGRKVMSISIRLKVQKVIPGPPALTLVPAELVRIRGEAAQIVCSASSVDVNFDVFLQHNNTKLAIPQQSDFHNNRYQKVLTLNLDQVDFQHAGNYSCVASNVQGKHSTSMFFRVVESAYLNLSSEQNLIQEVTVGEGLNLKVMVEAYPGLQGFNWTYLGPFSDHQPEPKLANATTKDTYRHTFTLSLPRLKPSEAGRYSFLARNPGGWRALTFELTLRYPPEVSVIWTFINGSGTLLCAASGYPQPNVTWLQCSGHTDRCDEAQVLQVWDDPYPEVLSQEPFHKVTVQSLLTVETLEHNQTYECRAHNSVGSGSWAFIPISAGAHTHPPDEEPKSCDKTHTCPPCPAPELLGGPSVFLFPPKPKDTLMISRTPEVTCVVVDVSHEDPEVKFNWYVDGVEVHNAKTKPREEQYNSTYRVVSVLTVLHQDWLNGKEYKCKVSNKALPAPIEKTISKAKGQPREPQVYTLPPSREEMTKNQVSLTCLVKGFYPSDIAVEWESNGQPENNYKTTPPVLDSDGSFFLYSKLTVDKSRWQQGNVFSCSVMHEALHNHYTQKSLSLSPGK

T1 sequence (P07333 20-512 limits assumed): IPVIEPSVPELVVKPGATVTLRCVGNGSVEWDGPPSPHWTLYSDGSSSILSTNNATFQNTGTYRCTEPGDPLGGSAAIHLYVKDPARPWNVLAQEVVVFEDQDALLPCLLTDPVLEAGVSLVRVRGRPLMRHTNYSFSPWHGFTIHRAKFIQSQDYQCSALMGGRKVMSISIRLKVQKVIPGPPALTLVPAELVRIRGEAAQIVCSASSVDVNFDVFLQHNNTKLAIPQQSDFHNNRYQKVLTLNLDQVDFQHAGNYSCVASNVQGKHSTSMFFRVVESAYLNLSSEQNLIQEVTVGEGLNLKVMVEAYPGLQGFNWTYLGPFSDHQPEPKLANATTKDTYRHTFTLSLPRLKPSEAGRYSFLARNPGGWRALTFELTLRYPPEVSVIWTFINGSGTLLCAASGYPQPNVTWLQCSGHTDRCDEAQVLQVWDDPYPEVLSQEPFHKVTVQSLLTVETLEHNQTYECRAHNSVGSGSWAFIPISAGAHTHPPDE

binding result [1]: binds
binding result [2]: binds
binding result (生物素标记的人CSF-1R-Fc蛋白): binds
B1: 卡比利珠单抗 (antibody, human IgG4 S228P, kappa, V domains shown)
VH: QVQLVQSGAEVKKPGSSVKVSCKASGYTFTDNYMIWVRQAPGQGLEWMGDINPYNGGTTFNQKFKGRVTITADKSTSTAYMELSSLRSEDTAVYYCARESPYFSNLYVMDYWGQGTLVTVSS
VL: NIVLTQSPATLSLSPGERATLSCKASQSVDYDGDNYMNWYQQKPGQAPRLLIYAASNLESGIPARFSGSGSGTDFTLTISSLEPEDFAVYYCHLSNEDLSTFGGGTKVEIKR
notes: Made in-house; also called Cabiralizumab; 对照基准物
